From US7462472B2 (priority 2001, dated 2008) come the findings set out here.

Test [1] has as its target CaM34/110-AEDANS/DAB, human CaM mutant [change]/[change] labeled with donor and acceptor (human) (UniProt P0DP23). The test is described as follows: fluorescence (FRET) titration of donor-acceptor labeled CaM34/110 with CyaA1-412.
Test [2] concerns the target CaM (Homo sapiens, UniProt P0DP23, T111C/T35C). Kind of test: biochemical. The format is binding.

CyaA1-412, adenylyl cyclase domain (amino acids 1-412) of CyaA, sequence (J7QLC0 1-412): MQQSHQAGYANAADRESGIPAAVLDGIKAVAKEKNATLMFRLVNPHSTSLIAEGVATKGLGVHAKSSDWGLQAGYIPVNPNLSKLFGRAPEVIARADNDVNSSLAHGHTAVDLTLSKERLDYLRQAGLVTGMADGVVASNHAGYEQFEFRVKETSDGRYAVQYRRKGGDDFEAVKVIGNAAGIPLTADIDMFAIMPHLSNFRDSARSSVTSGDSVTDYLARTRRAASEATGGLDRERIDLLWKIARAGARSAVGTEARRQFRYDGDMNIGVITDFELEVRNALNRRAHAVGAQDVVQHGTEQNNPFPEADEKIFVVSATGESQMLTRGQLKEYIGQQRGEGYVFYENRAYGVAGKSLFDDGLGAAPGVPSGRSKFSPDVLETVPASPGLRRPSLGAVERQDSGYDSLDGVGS

For the molecule “CyaA1-412, adenylyl cyclase domain (amino acids 1-412) of CyaA (from UniProt J7QLC0 1-412) (enzyme)”, the Kd in test [1] was determined as 10 µM. That is a double-digit micromolar value. `CC[C@H](C)[C@H](NC(=O)CNC(=O)[C@H](Cc1ccc(O)cc1)NC(=O)[C@H](CCCCN)NC(=O)[C@@H](NC(=O)[C@H](CC(C)C)NC(=O)[C@H](CC(C)C)NC(=O)[C@H](CC(N)=O)NC(=O)[C@@H](NC(=O)[C@@H](NC(=O)CNC(=O)[C@H](CCCCN)NC(=O)[C@H](CCC(N)=O)NC(=O)[C@H](CCCCN)NC(=O)[C@H](CCC(=O)O)NC(=O)[C@H](CC(C)C)NC(=O)[C@H](CO)NC(=O)[C@@H](N)CC(N)=O)C(C)C)[C@@H](C)O)[C@@H](C)CC)C(=O)N[C@@H](CCC(=O)O)C(=O)O` [helix H peptide] showed a Kd in test [2] of 8.8 µM.

What is called Kd is the concentration at which binding is half-saturated. Lower therefore signals higher affinity.
